The results in this text go back to patent US12624096B2, “Anti-tau antibodies and methods of use thereof” (GTInvent Limited, priority 2020, dated 2026).

Common to all, as to type: binding
The test system of assay [1] is tau protein in brain homogenate. Description: Capture ELISA on transgenic mouse brain lysates. As to conditions: S1D12 mAb capture; WT, L1, L66+/- and L66+/+. As to the method:
Mouse brain lysates were prepared from wildtype, Line 1, Line 66+/+ and Line 66+/− (Melis et al., 2015, all surplus from Charles River, part of study R0144). All animals were female, 7-8 months old except Line 66+/+ which were 5 months old. […] The L1 cDNA construct (FIG. 23) contains human tau cDNA coding for amino acid residues 296-390 with a signal sequence and related sequences in a murine Thy-1 expression cassette. For brain lysate preparation, half brains were sectioned into four and the individual sections were homogenised in 400 μl of ice cold RIPA buffer (Cell signalling Technology) containing protease and phosphatase inhibitors. Total protein concentrations for individual samples were established by BCA-assay and each sample was subsequently diluted to 1 mg/ml for future experiments.
For capture ELISA, 100 µL S1D12 capture mAb was used to coat a nunc 96 well Maxisorp plate at 1 μg/ml and incubated for 1 hour at 37° C. Plate was washed as previously and then blocked for 1 hour at 37° C., in 2% MPBS. Brain homogenate samples (50 ng total protein) from each mouse type were added to the first wells and double diluted across the plate in PBS. These samples were left to incubate at RT for 1 hour. Various detection scAbs encompassing epitopes of interest were then added to the plate at 1 μg/ml and incubated for 1 h at RT. […]

Assay [2] deals with human tau and mouse tau. Description: Western blot of WT, L66+/+ and L1+/+ mouse brain homogenates. As to conditions: 20 μg protein, 5-month-old mice. As to the method: Protein equivalent to 20 μg from each brain extract was separated using 4-20% bis-tris gels and run in 1×MES buffer.
A band is detected in each sample (WT, L66^+/+ and L1^+/+) with an apparent molecular weight of approximately 55 kDa. This band most likely corresponds to endogenous mouse tau which is of a similar size. In the L66^+/+ samples, a second band running at approximately 68 kDa is also detected. The presence of numerous other bands indicates proteolytic truncation of tau within brain homogenates.
For orientation: In western blotting, separated proteins are transferred to a membrane and probed.

Assay [3] deals with tau fragments in plasma. As to the kind of experiment: Capture ELISA on transgenic mouse plasma. As to conditions: detection scAb, Line66 transgenic model. On the procedure:
Plasma samples from WT, L1, L66+/− and L66^+/+ of various ages (1.5-9 months) were taken as described. Mice were terminally anaesthetized using an overdose of sodium pentobarbital and blood was collected through cardiac puncture through a Plastipak syringe pre-rinsed with heparinised saline heparin (10 U/ml) (Heparin sodium salt; Sigma-Aldrich) and transferred into a plastic vial containing lithium heparin anticoagulant (Sarstedt Ltd.) Blood samples, kept on ice for no more than 30 minutes, were centrifuged to obtain plasma at 2000× g for 5 minutes at 6° C. Plasma samples were stored at −20° C.
For mouse plasma capture ELISA, 100 μL capture mAb was coated to the bottom of a black nunc 96 well ‘maxisorp’ plate at 2.5 μg/ml and incubated for 1 hour at 37° C. After washing and blocking as normal, several known standard solutions were set up in triplicate starting at 20 ng/ml of the desired protein before double diluted in the remaining wells. Mouse samples were added to wells in duplicate with a blank in between each sample group. Line1 plasma was diluted 1:10 before addition to plate to account for its high concentration while other samples were diluted 1:2 to account for potential matrix effects. […] The ELISA was developed using SuperSignal ELISA Femto Substrate (Thermo Scientific) and total luminescence was read on Clariostar Plus plate reader (BMG Labtech). […]

The target in assay [4] is htau40 (Homo sapiens, UniProt P10636). Description: Biacore X100 SPR of anti-tau mAbs on immobilised htau40. As to conditions: mAb, Table 27, immobilised hT40. The method, boiled down:
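htau40 amine-coupled to a CM5 chip (~250 RU); mAb injected at 0.78–25 nM in HBS-EP+ at 30 μL/min, 120 s association, 600 s dissociation, glycine pH 1.5 regeneration. Kinetics and affinity from 1:1 binding fit with reference-cell subtraction.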
In general terms: SPR reads the build-up and loss of mass on a sensor chip optically.

For assay [5], the target named is hT40 (Homo sapiens, UniProt P10636). As to the kind of experiment: Biacore X100 SPR, scAb captured via anti-HuCk, hT40 as analyte. As to conditions: scAb, Table 23, T441 (hT40). The method, boiled down:
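Captured scAb on anti-HuCk CM5 surface (flow cell 1 as reference) in HBS-EP+, capture set for theoretical RMax 100 RU; hT40 injected multi-cycle (0.15625–100 nM) or single-cycle (6.25–100 nM), 120 s association, 420 s dissociation, glycine pH 2.0 regeneration. Kinetics and affinity from 1:1 binding model fit.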

Sequence of htau40 (P10636 1-441 isoform P10636-8): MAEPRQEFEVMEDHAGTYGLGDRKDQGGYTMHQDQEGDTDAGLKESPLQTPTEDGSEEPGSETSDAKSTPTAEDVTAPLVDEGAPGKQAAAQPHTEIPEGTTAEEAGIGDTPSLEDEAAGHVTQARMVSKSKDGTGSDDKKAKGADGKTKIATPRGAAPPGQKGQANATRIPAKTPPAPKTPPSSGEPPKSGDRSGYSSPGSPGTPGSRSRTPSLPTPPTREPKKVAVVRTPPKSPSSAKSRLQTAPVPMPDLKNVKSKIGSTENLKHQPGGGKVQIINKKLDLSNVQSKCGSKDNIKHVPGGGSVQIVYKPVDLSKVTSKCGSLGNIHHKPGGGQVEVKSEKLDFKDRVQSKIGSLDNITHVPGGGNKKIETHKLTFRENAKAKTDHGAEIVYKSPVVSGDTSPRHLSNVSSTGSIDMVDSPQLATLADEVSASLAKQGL
Sequence of hT40 (P10636 1-441 isoform P10636-8): as above

B1: CB7: anti-tau clone, SEQ ID NO: 364 (protein)
scFv: QVQLQESGPSLVKPSQTLSLTCTVSGFSLTNYRVGWVRQAPGKALEWVSNIRSGGTTWYNPALKSRLSITADTSKSQVSLSLSSVTTEDTAVYYCARDSSGDLYAYDYWGPGLLVTVSSEGKSSGASGESKVDDQAVLTQPSSVSRSLGQSVSMTCSGSSSNVGYGNYMAWFQQVPGSAPKLLIYGATSRASGVPDRFSGSRSGNTATLTISSLQAEDEADYYCASYDSTSGGVFGSGTRLTVLG
modifications: CB7 amino acid sequence
As for B1, the “tau detection in mouse brain homogenate” value in assay [1] is listed as “hT40 tau was specifically detected in L66 samples”. The “bands detected in western blot of WT, L66+/+ and L1+/+ brain homogenates” value in assay [2] is recorded as “show specificity for human tau”. Also, in assay [3], the “cross reaction with endogenous mouse tau protein” value is reported as “does not cross react with endogenous mouse tau protein”. For the same molecule, the ka in assay [4] came to 2.568e+06 M⁻¹ s⁻¹; in assay [5] it was 133400 M⁻¹ s⁻¹. In addition, the kd in assay [4] turned out to be 0.009451 s⁻¹; in assay [5], 0.0006936 s⁻¹.
